B1: Sec1-V5-His6 (natural protein)
chain: MSDLIELQRNYLIGVLNQIETKNNLKFLIIDKTVETILSYLFLTPQELLNNVTSVDLIDSPTRKGQSSIEAIYILEPTKYNINCIDADFMVRPPKYRRCHIRFLPGLTNPIFQFFQSKRYIAQNLESFKPIELGFFVKESQFFETLQMEHSLQVFFNNNCKALIPTNVRKIVGSLVSLCVITGEYPIVRYSVSNPVEEEDARNGNAVVNANSLTRSIANAFQIAIDTYARNNPDFPPQNTERPRSILIITDRTLDPFAPILHDFSYQAMAYDLVANVDTQKDIYHYSAENEAGEQEEKVSKLVDLYDPDWIDLKHQHIMDANEYIQGRIKELIAKNPLLVDRSNVKNTTDLLSVVAHLKDFDEERRRLILHKTLVDECLGENAERKLADISAIEQNLSGFGMDFSGEKIKHIIDDLLPALAMKEPTILDKLRYIIAYALFRGGIIELDFIKLLNFIGVTHEHENFQQYLKIFRNYDLIDFKLIKDKPKDKPFQKEWFHDTLVNDPNIYHTSRFVPAVGNILSKVIANPLLLSEQYFPYLKDKPIELLNEEEFQAGLANTSANSSSSLRNPRHKAAWTTKSSNIKKNIPRQRFFYYVIGGISIPEIKAAYDQSNLKNRDIFIGSDEILTPTKFLDEVERLQNPREFFKFKEDQRQQVNPPDFLLREMKPVAQPVSHVHLKSQDNSPKSGTSSPKAAGSLKSEPPEKEKKRSKFSRFLKRKSHHDK

Tests used:
[1] = molecular target: T1, Recombinant Sec6 (1–805) (yeast, UniProt P32844 1-805); assay: pull-down
T1 sequence: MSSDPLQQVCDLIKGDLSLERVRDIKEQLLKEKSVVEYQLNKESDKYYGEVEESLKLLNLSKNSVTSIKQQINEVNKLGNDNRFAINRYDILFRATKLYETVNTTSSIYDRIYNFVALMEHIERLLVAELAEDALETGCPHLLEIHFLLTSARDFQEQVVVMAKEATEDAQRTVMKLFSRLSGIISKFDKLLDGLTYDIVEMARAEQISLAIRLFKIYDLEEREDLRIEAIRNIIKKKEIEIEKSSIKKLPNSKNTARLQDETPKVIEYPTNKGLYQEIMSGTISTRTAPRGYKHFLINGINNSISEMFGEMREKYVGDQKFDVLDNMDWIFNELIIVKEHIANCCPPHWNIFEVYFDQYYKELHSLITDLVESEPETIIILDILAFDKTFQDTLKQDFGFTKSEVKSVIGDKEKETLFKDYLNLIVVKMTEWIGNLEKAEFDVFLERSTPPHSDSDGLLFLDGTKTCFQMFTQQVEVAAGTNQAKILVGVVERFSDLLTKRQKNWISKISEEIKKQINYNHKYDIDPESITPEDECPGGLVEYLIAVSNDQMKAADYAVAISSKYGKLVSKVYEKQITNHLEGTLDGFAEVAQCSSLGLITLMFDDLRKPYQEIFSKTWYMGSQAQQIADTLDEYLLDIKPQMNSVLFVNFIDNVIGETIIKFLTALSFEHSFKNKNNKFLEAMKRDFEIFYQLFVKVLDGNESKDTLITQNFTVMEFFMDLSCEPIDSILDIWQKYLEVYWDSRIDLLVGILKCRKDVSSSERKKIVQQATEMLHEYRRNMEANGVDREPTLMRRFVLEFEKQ

[2] = molecular target: B1; assay: pull-down
[3] = molecular target: T1, Recombinant Sec6 (1–805); assay: […]
[4] = molecular target: T1, Recombinant Sec6 (1–805); assay: SEC

B1
Kd [1]: ~1700 nM

B2: Sso1, cytoplasmic region (domain or fragment)
chain: MSYNNPYQLETPFEESYELDEGSSAIGAEGHDFVGFMNKISQINRDLDKYDHTINQVDSLHKRLLTEVNEEQASHLRHSLDNFVAQATDLQFKLKNEIKSAQRDGIHDTNKQAQAENSRQRFLKLIQDYRIVDSNYKEENKEQAKRQYMIIQPEATEDEVEAAISDVGGQQIFSQALLNANRRGEAKTALAEVQARHQELLKLEKSMAELTQLFNDMEELVIEQQENVDVIDKNVEDAQLDVEQGVGHTDKAVKSARKARKNKIR
Kd [2]: > 10000 nM

B3: MBP-Sec9CT (domain or fragment)
chain: ARQQQEEDEAVDEIKQEIKFTKQSSVASTRNTLKMAQDAERAGMNTLGMLGHQSEQLNNVEGNLDLMKVQNKVADEKVAELKKLNRSILAVHVSNPFNSKRRRREREEQLKNRKIEEKLMREQTSQQLSQSTQRIEGAMNANNNISEVRERYQRKNVLEKAKRYQFENDEEDDEMELEIDRNLDQIQQVSNRLKKMALTTGKELDSQQKRLNNIEESTDDLDINLHMNTNRLAGIR
binding result [3]: binds

B4: Sec9CT (416–651) (domain or fragment)
chain: ARQQQEEDEAVDEIKQEIKFTKQSSVASTRNTLKMAQDAERAGMNTLGMLGHQSEQLNNVEGNLDLMKVQNKVADEKVAELKKLNRSILAVHVSNPFNSKRRRREREEQLKNRKIEEKLMREQTSQQLSQSTQRIEGAMNANNNISEVRERYQRKNVLEKAKRYQFENDEEDDEMELEIDRNLDQIQQVSNRLKKMALTTGKELDSQQKRLNNIEESTDDLDINLHMNTNRLAGIR
binding result [4]: binds

Reference: publication PMC3258177 (Molecular Biology of the Cell, 2012)
